Experimental findings from PMC10693867 (Journal for Immunotherapy of Cancer, 2023) are described below.

For this assay, the target named is CD1d(endogenous lipid)-β2M complex, as crystallized with VHH1D17 (Homo sapiens, UniProt P15813;P61769).

B1: VHH1D5 (VHH)
VHH: EVQLVESGGGLVQAGGSLRLSCAASGSSFSSYTMGWFRQAPGKEREIVAGIRWSDESPIYADSVKGRFTISRDNAKNTLYLQMNSLKPEDTAVYYCAARLVPPGIPIPRTSESMRYWGKGTLVTVSS
For B1, the binding result is “binds”.
